The values below come from PMC4442525 (2015).

First the molecules themselves.
B1: FLAG-tagged KIR3DL1*001 [human] / HLA-B*57:01-LF9 tetramer [human | not stated] (parent complex)
chain 1: HMGGQDKPFLSAWPSAVVPRGGHVTLRCHYRHRFNNFMLYKEDRIHIPIFHGRIFQESFNMSPVTTAHAGNYTCRGSHPHSPTGWSAPSNPVVIMVTGNHRKPSLLAHPGPLVKSGERVILQCWSDIMFEHFFLHKEGISKDPSRLVGQIHDGVSKANFSIGPMMLALAGTYRCYGSVTHTPYQLSAPSDPLDIVVTGPYEKPSLSAQPGPKVQAGESVTLSCSSRSSYDMYHLSREGGAHERRLPAVRKVNRTFQADFPLGPATHGGTYRCFGSFRHSPYEWSDPSDPLLVSVTGNPSSSWPSPTEPSSKSGNPRHLHILIGTSVVIILFILLLFFLLHLWCSNKKNAAVMDQEPAGNRTANSEDSDEQDPEEVTYAQLDHCVFTQRKITRPSQRPKTPPTDTILYTELPNAKPRSKVVSCP
chain 2: not shown
chain 3: not shown
chain 4: LSSPVTKSF

One assay covers variants of B1. As to the kind of experiment: pHLA tetramer staining of transfected HEK293T cells; read off a plot.
For the variant chain 1 P163S, the response is approximately 81. Regarding chain 1 P199L, the response was approximately 71. As to chain 1 L166R, the response was approximately 8. In the case of chain 1 G138W, the response was approximately 83.

Variants of B1 are the subject of another assay. Described as above. This is another data set of the same source.
Take chain 4 S8R: the response is approximately 72. Regarding chain 4 S8A, the response is approximately 57.

For the variant chain 4 S8F, the response is approximately 110. Same read-out and setting: the result for chain 4 S8H reads approximately 99. On the same count and under the same terms, the result for chain 4 S8L reads approximately 58.

In the next assay the parent is B1. The assay is described as above. The source holds these as a separate data set.
Consider chain 4 S8E, for which the response was approximately 6.
